B2: His-DAPLE-CT (aa 1650-2028) (other)
chain: GTAPPYVGVRPCSASPSSEMVTLEEFLEESNRSSPTHDTPSCRDDLLSDYFRKASDPPAIGGQPGPPAKKEGAKMPTNFVAPTVKMAAPTSEGRPLKPGQYVKPNFRLTEAEAPPSVAPRQAQPPQSLSLGRPRQAPVPPASHAPASRSASLSRAFSLASADLLRASGPEACKQESPQKLGAPEALGGRETGSHTLQSPAPPSSHSLARERTPLVGKAGSSCQGPGPRSRPLDTRRFSLAPPKEERLAPLHQSATAPAIATAGAGAAAAGSGSNSQLLHFSPAAAPAARTKPKAPPRSGEVATITPVRAGLSLSEGDGVPGQGCSEGLPAKSPGRSPDLAPHLGRALEDCSRGSVSKSSPASPEPGGDPQTVWYEYGCV
notes: Recombinant, purified from E. coli; also called His-DAPLE-CT WT; DAPLE-CT WT; not shown: His tag and vector residues of pET28b
B4: His-Gαi3 (GDP-loaded) (other, rat, UniProt P08753 1-354, looked up)
chain: MGCTLSAEDKAAVERSKMIDRNLREDGEKAAKEVKLLLLGAGESGKSTIVKQMKIIHEDGYSEDECKQYKVVVYSNTIQSIIAIIRAMGRLKIDFGEAARADDARQLFVLAGSAEEGVMTSELAGVIKRLWRDGGVQACFSRSREYQLNDSASYYLNDLDRISQTNYIPTQQDVLRTRVKTTGIVETHFTFKELYFKMFDVGGQRSERKKWIHCFEGVTAIIFCVALSDYDLVLAEDEEMNRMHESMKLFDSICNNKWFTDTSIILFLNKKDLFEEKIKRSPLTICYPEYTGSNTYEEAAAYIQCQFEDLNRRKDTKEVYTHFTCATDTKNVQFVFDAVTDVIIKNNLKECGLY
notes: also called recombinant His-Gαi3; not shown: His tag

What was measured:
His-Gαi3 (GDP-loaded) [1] = molecular target: B4; experiment: GST pulldown with 0.01-3 µM His-Gαi3, band intensities fitted to a one-site binding curve (FIG. 1F)
His-Gαi3 (GDP-loaded) [2] = molecular target: B4; experiment: cell-based or functional assay
[3] = molecular target: T1, GST-Gαi3 preloaded with GDP (inactive) (rat, UniProt P08753 1-354); experiment: displacement of Gβγ from preformed GST-Gαi3·Gβγ complexes, immunoblot fitted to a single-site competition curve (FIG. 3C)
T1 construct: Immobilized on glutathione beads; Same polypeptide as m11, other nucleotide state; also called GST-Gαi3 WT; not shown: glutathione S-transferase tag of the pGEX-4T-1 vector
Text: FIGS. 3A-3J. DAPLE's GBA motif triggers the release of ‘free’ Gβγ subunits, which in turn enhance Rac1 and PI3K-Akt signaling. (A) DAPLE's GBA motif and Gβγ subunits are predicted to dock onto an overlapping binding site on Gαi. Binding areas (in red) for DAPLE (left) or Gβγ (right) on Gαi (solid grey) were extracted from a homology-based model of DAPLE-Gαi3 and the crystal structure of the Gαi1·Gβγ complex (PBD: 1GG2), respectively. (B, C) DAPLE displaces Gβγ subunits from Gαi3 via its GEF motif. GST-Gαi3·Gβγ preformed complexes immobilized on glutathione beads were incubated with increasing concentrations of His-DAPLE-CT WT or F1675A (FA). Bound proteins were analyzed by immunoblotting (B) and Gβγ binding data fitted to a single-site competition curve (C). Mean±S.E.M. of 3 independent experiments. […] Control (shLuc) or two clones of DAPLE-depleted HeLa cell lines (shDAPLE 1 and 2) (described in FIGS. 10A & 10B) were incubated in 2% serum media (D) or starved and treated (+) or not (β) with Wnt5a ([…]) for 5 min (E) and analyzed for Rac1 activation by pulldown assays using GST-PBD. […] DAPLE-depleted (shDAPLE 1) HeLa cells transiently transfected with myc-DAPLE-WT or FA were starved and stimulated with Wnt5a and analyzed for Rac1 activation as in E. (G, H) DAPLE's GBA motif is required for activation of PI3K-Akt signaling in HeLa cells, as determined by phosphorylation of Akt at 5473. […]

[4] = molecular target: B2; experiment: GST pulldown, purified proteins, inactive or active conformations (FIG. 1H)
Protocol: Equal aliquots of lysates of HEK293 cells expressing Gαi3-FLAG were incubated with anti-FLAG mAb or control IgG and protein G beads. Immune complexes were analyzed for DAPLE and Gαi3 (FLAG) by immunoblotting (IB). Gβ was monitored as positive Gαi3-binding control. […] Resin-bound proteins were eluted, separated by SDS-PAGE and analyzed by Ponceau S-staining and immunoblotting (IB) with the indicated antibodies. No binding to GST alone was detected. […] No binding of myc-DAPLE or Gβ to GST alone was detected. […] Insert, Purified GST-DAPLE-CT and GST-GIV (aa 1671-1755, containing the GBA motif) immobilized on glutathione-agarose beads were incubated with increasing amounts (0.01-3 μM) of purified His-Gαi3 (GDP-loaded) and binding analyzed by immunoblotting as described in (D). No binding to GST alone was detected at the highest His-Gαi3 concentration tested. Graph, Gαi3 binding was quantified by measuring band intensities and data fitted to a single-site binding hyperbola (DAPLE=BLUE, GIV=RED) to determine the equilibrium dissociation constants (Kd). Mean±S.E.M of 4 independent experiments. (G) DAPLE binds to all three Gαi subunits. […] (H) DAPLE selectively binds to Gαi, but not Gao.

GST-FZD7-CT = molecular target: T2, GST-FZD7-CT (UniProt P08515 1-218 = GST); experiment: GST-FZD7-CT pulldown of His-Gαi3 with His-DAPLE-CT WT against His-Gαi3 alone (FIG. 4E)
T2 construct: Immobilized on glutathione beads directly from bacterial lysates; also called GST-FZD7R-CT; Fzl17-CT
T2 sequence (P08515 whole entry): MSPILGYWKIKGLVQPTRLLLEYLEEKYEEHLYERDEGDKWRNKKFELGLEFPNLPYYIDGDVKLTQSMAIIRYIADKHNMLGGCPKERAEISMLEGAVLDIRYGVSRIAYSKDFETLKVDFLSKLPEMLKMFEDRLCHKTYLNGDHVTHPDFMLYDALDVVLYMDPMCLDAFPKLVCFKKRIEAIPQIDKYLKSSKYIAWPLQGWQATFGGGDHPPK

GST-DAPLE-CT = molecular target: T3, GST-DAPLE-CT (human, UniProt Q9P219 1650-2028); experiment: GST pulldown with 0.01-3 µM His-Gαi3, band intensities fitted to a one-site binding curve (FIG. 1F)
T3 construct: also called GST-DAPLE-CT WT; not shown: glutathione S-transferase tag of the pGEX-4T vector
T3 sequence: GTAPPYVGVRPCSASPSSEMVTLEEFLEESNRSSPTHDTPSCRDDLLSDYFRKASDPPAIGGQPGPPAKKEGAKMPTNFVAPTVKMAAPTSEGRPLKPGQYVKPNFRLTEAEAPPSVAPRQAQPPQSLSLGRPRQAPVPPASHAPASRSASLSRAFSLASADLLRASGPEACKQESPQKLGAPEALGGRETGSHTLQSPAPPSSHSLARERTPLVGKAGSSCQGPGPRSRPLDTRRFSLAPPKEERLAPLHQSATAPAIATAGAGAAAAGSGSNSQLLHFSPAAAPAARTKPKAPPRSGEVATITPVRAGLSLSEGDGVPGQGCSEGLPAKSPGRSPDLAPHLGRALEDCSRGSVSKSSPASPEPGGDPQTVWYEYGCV

[5] = molecular target: T4, myc-DAPLE full length F1675A (human, UniProt Q9P219 1-2028); experiment: co-immunoprecipitation with anti-FLAG mAb from Cos7 cells (FIG. 2E)
T4 construct: Expressed in Cos7 cells; used as cell lysate; also called myc-DAPLE FA; DAPLE-FA; not shown: N-terminal myc tag of myc-pcDNA 3.1 (+)

B1: GST-GIV (aa 1671-1755) (other, UniProt Q3V6T2 1671-1755, looked up)
chain: IKTGSPGSEVVTLQQFLEESNKLTSVQIKSSSQENLLDEVMKSLSVSSDFLGKDKPVSCGLARSVSGKTPGDFYDRRTTKPEFLR
notes: range 1671-1755; also called GST-GIV CT 1671-1755 aa; not shown: glutathione S-transferase tag
With B1 as the binder, how does the Kd (His-Gαi3 (GDP-loaded) [1]) read?
Its Kd is 240 nM.

What does the source list for B2?
EC50 of the acceleration of Gαi3 steady-state GTPase activity (His-Gαi3 (GDP-loaded) [2]): 250 nM; rate of steady-state GTP hydrolysis of His-Gαi3 (His-Gαi3 (GDP-loaded) [2]): ~3 fold; IC50 [3]: 160 nM

B3: GST-Gao (other, rat, UniProt P59215 1-354, looked up)
chain: MGCTLSAEERAALERSKAIEKNLKEDGISAAKDVKLLLLGAGESGKSTIVKQMKIIHEDGFSGEDVKQYKPVVYSNTIQSLAAIVRAMDTLGVEYGDKERKADSKMVCDVVSRMEDTEPFSAELLSAMMRLWGDSGIQECFNRSREYQLNDSAKYYLDSLDRIGAADYQPTEQDILRTRVKTTGIVETHFTFKNLHFRLFDVGGQRSERKKWIHCFEDVTAIIFCVALSGYDQVLHEDETTNRMHESLMLFDSICNNKFFIDTSIILFLNKKDLFGEKIKKSPLTICFPEYPGSNTYEDAAAYIQTQFESKNRSPNKEIYCHMTCATDTNNIQVVFDAVTDIIIANNLRGCGLY
notes: also called Gαo; not shown: glutathione S-transferase tag of the pGEX-4T-1 vector
Does B3 bind [4]?
Result: no binding

What does the source list for B4?
fold increase of binding in the presence of DAPLE-CT WT (GST-FZD7-CT): ~5 fold; Kd (GST-DAPLE-CT): 110 nM

B5: Gαi3-FLAG (other, rat, UniProt P08753 1-354, looked up)
chain: MGCTLSAEDKAAVERSKMIDRNLREDGEKAAKEVKLLLLGAGESGKSTIVKQMKIIHEDGYSEDECKQYKVVVYSNTIQSIIAIIRAMGRLKIDFGEAARADDARQLFVLAGSAEEGVMTSELAGVIKRLWRDGGVQACFSRSREYQLNDSASYYLNDLDRISQTNYIPTQQDVLRTRVKTTGIVETHFTFKELYFKMFDVGGQRSERKKWIHCFEGVTAIIFCVALSDYDLVLAEDEEMNRMHESMKLFDSICNNKWFTDTSIILFLNKKDLFEEKIKRSPLTICYPEYTGSNTYEEAAAYIQCQFEDLNRRKDTKEVYTHFTCATDTKNVQFVFDAVTDVIIKNNLKECGLY
notes: Expressed in HEK293 or Cos7 cells; immunoprecipitated with anti-FLAG mAb; also called FLAG-Gαi3; not shown: FLAG tag
Does B5 bind [5]?
Result: no binding

Source: patent publication US20160362464A1 (University of California, published 2016)
